Assay results: the DeepSol protein solubility set

Assay: soluble on expression in E. coli; label from the status in PepcDB or PDB records
In the case of “MGSSHHHHHHSSGLVPRGSHMTRSKVAIIGGGPAGSVAGLTLHKLGHDVTIYERSAFPRYRVGESLLPGTMSILNRLGLQEKIDAQNYVKKPSATFLWGQDQAPWTFSFAAPKVAPWVFDHAVQVKREEFDKLLLDEARSRGITVHEETPVTDVDLSDPDRVVLTVRRGGESVTVESDFVIDAGGSGGPISRKLGVRQYDEFYRNFAVWSYFKLKDPFEGDLKGTTYSITFEDGWVWMIPIKDDLYSVGLVVDRSKSAEVREQGADAFYSSTLAKCAKAMDILGGAEQVDEVRIVQDWSYDTEVFSADRFFLCGDAACFTDPLFSQGVHLASQSAVSAAAAIDRITRHGDEKDAVHAWYNRTYREAYEQYHQFLASFYTFASFTEPDSEFWRKRRITESDDDRLTRKKWFESLAGNGPEDPSGTVASFRDRASTMIAIGRHQRPELSDDFSEAELNPARVRWISDLTKRLNSITRFKWTGGKAVLKQHYRVEPIGFRLEQREVLANGEGLDMAQYPMDDEARQIFQDLAEEEFGYKTLVKRLGAVGRQELSTQIVVRLMEAGLLTGYDAQGEKVFVQGRLHFGGVGVEYEV”, the “soluble on expression in E. coli” value is reported as “soluble”. In the case of “MGSSHHHHHHSSGLVPRGSMNNIYPLVICGPSGVGKGTLIKKLLNEFPNYFYFSVSCTTRKKREKEKEGVDYYFIDKTIFEDKLKNEDFLEYDNYANNFYGTLKSEYDKAKEQNKICLFEMNINGVKQLKKSTHIKNALYIFIKPPSTDVLLSRLLTRNTENQEQIQKRMEQLNIELHEANLLNFNLSIINDDLTLTYQQLKNYLLNSYIHLNNHTRN”, the “soluble on expression in E. coli” value is reported as “soluble”. For “MGSSHHHHHHSSGLVPRGSMSTSWSDRLQNAADMPANMDKHALKKYRREAYHRVFVNRSLAMEKIKCFGFDMDYTLAVYKSPEYESLGFELTVERLVSIGYPQELLSFAYDSTFPTRGLVFDTLYGNLLKVDAYGNLLVCAHGFNFIRGPETREQYPNKFIQRDDTERFYILNTLFNLPETYLLACLVDFFTNCPRYTSCETGFKDGDLFMSYRSMFQDVRDAVDWVHYKGSLKEKTVENLEKYVVKDGKLPLLLSRMKEVGKVFLATNSDYKYTDKIMTYLFDFPHGPKPGSSHRPWQSYFDLILVDARKPLFFGEGTVLRQVDTKTGKLKIGTYTGPLQHGIVYSGGSSDTICDLLGAKGKDILYIGDHIFGDILKSKKRQGWRTFLVIPELAQELHVWTDKSSLFEELQSLDIFLAELYKHLDSSSNERPDISSIQRRIKKVTHDMDMCYGMMGSLFRSGSRQTLFASQVMRYADLYAASFINLLYYPFSYLFRAAHVLMPHESTVEHTHVDINEMESPLATRNRTSVDFKDTDYKRHQLTRSISEIKPPNL”, the “soluble on expression in E. coli” value was “soluble”. In the case of “MGSSHHHHHHSSGRENLYFQGMVKNYVLDTNVLIHDPDSIFSFEDNNVIIPLPVLEELDKLKREHGSVGKNAREVIRHLDELRKKGNLRKGIPLENGGILRVMVLEREVENVPRFLHERYVDNIILAYVIELMNREKIPTILVSKDINLRVKADSLGIPAQDYLTDRSELETMPKGYVEIDDEELKKQLKVKVTVEKKLDLLDNFYIDLGGVYGKYRKGKVLRVEPFETMGISPRNREQIFSMDALLDDEIPLVFLVGIAGTGKTLLALACGLYKVLVEKRYKKLIVTRPTVPMGRDIGYLPGELEKKMKPWLQPIMDNLELISSLSGLKIKELEKQEILEVEAISFIRGRSIPKQFIIIDEAQNLTPHEVKTILTRVGEDTKIVLVGDPYQIDTPYLDKDTNGLVYAALKLLESDLSAVIKLEKGERSRLATIAAELL”, the “soluble on expression in E. coli” value is reported as “soluble”. In the case of “MGSSIASSLMDPTQYYSQFISLQKASLEKAKTPYQNQISSYQSRIDLYASLKNALSDSLKTMSSFTTYESKTKLATSSNETSFTVSSTSSSVNGSYSIEVQNLATADT”, the “soluble on expression in E. coli” value is reported as “not soluble”. With “MGSVSTGNAGSGTVGTSTTSRADVMTFQPSSLPVSYVGETYNVQVGVTGGVGPYGYRLTAGTLPPGLKFAGGALSGTPTKAGSYSFAIQATDANLSTRVQEYTMNVDALPPLALKPTLPPGEIRGETRIPVTIQAPRAVRAARLSWDLGKDVQVTRVQPADAGSVVFWQQRGSVLTVDLGFRTVPRPDARIALITVKPAKAVTLKADALGYEARDGSGKMLVDKKRPGSEPVKPAEQPGDPKVDPKAADQKATDQKATDPKTVDPKTVTPADTVEGGPLPSPALPTPSLPPTLPPVTTPPANTPPVPTPTPPANQPAPAPAPQPAPAPQPTPPSGTGGALEHHHHHH” the “soluble on expression in E. coli” value was “not soluble”. For “MGSYSSDDVEVIREAGRAQGLATILAIGTATPPNCVAQADYADYYFRVTKSEHMVDLKEKFKRICEKTAIKKRYLALTEDYLQENPTMCEFMAPSLNARQDLVVTGVPMLGKEAAVKAIDEWGLPKSKITHLIFCTTAGVDMPGADYQLVKLLGLSPSVKRYMLYQQGCAAGGTVLRLAKDLAENNKGSRVLIVCSEITAILFHGPNENHLDSLVAQALFGDGAAALIVGSGPHLAVERPIFEIVSTDQTILPDTEKAMKLHLREGGLTFQLHRDVPLMVAKNIENAAEKALSPLGITDWNSVFWMVHPGGRAILDQVERKLNLKEDKLRASRHVLSEYGNLISACVLFIIDEVRKRSMAEGKSTTGEGLDCGVLFGFGPGMTVETVVLRSVRVTAAVANGN”, the “soluble on expression in E. coli” value was “soluble”. For “MGTEVSTSPTSLIDQTVVPGDVVLDLSNMTNQTIKLGSGLRQDNEVISVMRAGKLRYSKPNKYWVESSHKRYVPRPEDHVLGIVVDCKGENYWIDIKGPQLALLPVLAFEGANRRNYPKFEVSTLLYTRVVKTNTGMNPELSCVDESGKAAGFGPLKDGFMFETSTGLSRMLLSSPTCPVLEALGKKLSFETAFGLNGRCWVHAAAPRIVIIVANALMNSETLSGTQQRIMVEKLLEKISD”, the “soluble on expression in E. coli” value was “soluble”. With “MGTILDKIVNQKKKEVAALYETYTPVKEKRKTRSLVKALEQFTVIAEVKRASPSKGDINLHVDVRKQVKTYEECGAGAVSVLTDGQFFKGSFYDLQTAREESSIPLLCKDFIIDKIQIDRAYEAGADIILLIVAALTKEKLKELYSYVLEKGLEAIVEVHDEQELEIAIQLNPHVIGINNRNLKTFEVDLSQTEKLGKRLNEEKLLWISESGIHSKEDIIRVKRAGAKGVLVGEALMTSSSIHTFFEDCKVNI” the “soluble on expression in E. coli” value was “not soluble”. With “MGTLSVNQNKLQKRLRRLAGEAVADFNMIEEGDKVMVCLSGGKDSYTLLDVLMHFQKVAPIRFDIVAVNMDQKQPGFPEHVLPAYLKELGVEYHIVEKDTHSVVKELIPEGKTTCSLCSRLRRGTLYTFADQIGATKMALGHHRDDIIETFFLNMFFNGALKAMPPKLRADDGRNVVIRPLAYCHEKDIQAYSDLKQFPIIPCNL” the “soluble on expression in E. coli” value was “not soluble”. With “MGTMHTSELLKHIYDINLSYLLLAQRLIVQDKASAMFRLGINEEMANTLGALTLPQMVKLAETNQLVCHFRFDDHQTITRLTQDSRVDDLQQIHTGIMLSTRLLNEVDDTARKKRA” the “soluble on expression in E. coli” value was “not soluble”. For “MGTMVFVNFPVADVQRSTAFYEKLGFKKNEEFSTEEASSMMWDDQFWIMLLNHDFYGKFIQEKQIIDAQTTSGALISFSLESAEAVKQFGETAKANGGNCYRVDMGIPEEQMYGLEVQDLDGNSLEPVWMKM”, the “soluble on expression in E. coli” value was “not soluble”. In the case of “MGVEKTIVGIAGKIAAGKTTVAKFLEELGFCRISCSEPLLDILTGNVSEYSWVPEVNFKGEPTRENLIELGRLLKEKYGEDILIRLAIDKLRRCKNIAIDGVRSLGEVEAIKRMGGIIIYIEARAEVRFERLRKRCSEKDRGIKTLQDLLRFDEWEERLYSTTNIKEKADFVILNEGSLEELKKKVREILREHSN”, the “soluble on expression in E. coli” value is reported as “not soluble”. In the case of “MGVHVVLYQPEIPANTGNIARTCAATGTELHLIRPLGFSTDDKMLKRAGLDYWQHVKITYYDSIEEFYEKNKDGEFFYLTKYGEKAHTAFDYSKREKDYYFVFGRETNGLPANVIEENFDHCLRIPMTDKVRSLNLSNTAAILIYEAFRQQNYPGLDLEIVY”, the “soluble on expression in E. coli” value is reported as “not soluble”. In the case of “MGVMKGIEFSESKLKEILDQLPIEAQSAFAASCAQRIFTCYVEYARVAKSKKVDLDAYSEAISYVWNAVIAGNHDAIILNGLLERCMAVLPSEEDAWESGTPYAEDAAAAIIYSLRSLASGCPQEAIWAAKRVYEAVDNFVVNTYNVNTNATDGEKFILDHPIVSNELSRQLRDLNEIINSKRDSESLKKTIKIIMERSKSESNDLFSEAT”, the “soluble on expression in E. coli” value is reported as “not soluble”. For “MGVTLAKGGNVSLSKAAPNLTQVMIGLGWDARSTTGAPFDLDASALLCREGRVLGDEWFVFYNQLKSPDGSVEHTGDNLTGEGEGDDESILVDLSTVPAQVDKIVFPVSIHEADNRGQTFGQVSNAFIRVVNQADGQELARYDLSEDASTETAMIFGEVYRYGGEWKFRAVGQGYASGLRGIVQDFGVSVS”, the “soluble on expression in E. coli” value was “not soluble”. In the case of “MGYVPIKNDYNEAQNKDSQSFLIMGLDNTIERKLGTTRTDAMMVITVNNKTKKITYLSLPRDSFVQIDAKNYQGMQRIEAAYTYDGPTASVNTVEKLLNIPINHYVVFNFLSFIKLIDAVGGIDVNVKQAFDGVTKDGPGSIHFDAGKQHLDGTKALSYARERHSDNDIMRGFRQQEIIQAVEDKLKSGQSIMKIMDIIDSLNGNIQTDVDSNELTHLVKEGLTWTNYDKQQLSFDWRTFSNEGRSMVELYPDSIENVRHQLRVSLNLEKPDERDQDGYVFHTNGEFLYQSDYTVQDEAAEENEMTSINGNTYIGVPGNTQTGPLPSVKTENGFIKLEHHHHHH”, the “soluble on expression in E. coli” value is reported as “soluble”. With “MHCAENCIFCKIIAGDIPSAKVYEDEHVLAFLDISQVTKGHTLVIPKTHIENVYEFTDELAKQYFHAVPKIARAIRDEFEPIGLNTLNNNGEKAGQSVFHYHMHIIPRYGKGDGFGAVWKTHADDYKPEDLQNISSSIAKRLASS” the “soluble on expression in E. coli” value was “soluble”. In the case of “MHCALLYSGGKDSTLAALLLDPFYDVTLVSGSFGVRDTDPAQESATAVGFDHVTVDLDPDVAHDAVKQMFDDGYPRNGIQRVHEHAVETVARADWVADADGLGTLDAVADGTRRDDRVPTVDRPLAQSIEDRFDVDYLAPLAGIGRGAIDAMAADRLVVESGPSAEIPKADYEVELRALLRKRYGEGAVADVFPEHTQSRVQGLR”, the “soluble on expression in E. coli” value is reported as “not soluble”. In the case of “MHHHHHHMKRKSIFKDKVFLFLNAKQYKKLSPAVLFGGGKTDLLMGELKDASVLDNPATCVIDVAMTESQLSESQSTQPWITSTLDLLQSKGLRTIPEAEIGLAVINVSTEIYCNPRR”, the “soluble on expression in E. coli” value is reported as “soluble”. With “MHHHHHHNEEFRPEMLQGKKVIVTGASKGIGREMAYHLSKMGAHVVLTARSEEGLQKVVSRCLELGAASAHYIAGTMEDMTFAEQFIVKAGKLMGGLDMLILNHITQTSLSLFHDDIHSVRRVMEVNFLSYVVMSTAALPMLKQSNGSIAVISSLAGKMTQPMIAPYSASKFALDGFFSTIRTELYITKVNVSITLCVLGLIDTETAMKEISGIINAQASPKEECALEIIKGTALRKSEVYYDKSPLTPILLGNPGRKIMEFFSLRYYNKDMFVSN” the “soluble on expression in E. coli” value was “soluble”. With “MHHHHHHQYKLALNGKTLKGETTTEAVDAATAEKVFKQYANDNGVDGEWTYDDATKTFTVTEGSQWQPQLQQLRDMGIQDDELSLRALQATGGDIQAALELIFAGGAP” the “soluble on expression in E. coli” value was “soluble”. In the case of “MHHHHHHSSGRENLYFQGDPRRRNILRSLRRNTKKPKPKPRPSITKATWESNYFGVPLTTVVTPEKPIPIFIERCIEYIEATGLSTEGIYRVSGNKSEMESLQRQFDQDHNLDLAEKDFTVNTVAGAMKSFFSELPDPLVPYNMQIDLVEAHKINDREQKLHALKEVLKKFPKENHEVFKYVISHLNKVSHNNKVNLMTSENLSICFWPTLMRPDFSTMDALTATRTYQTIIELFIQQCPFFFYNR”, the “soluble on expression in E. coli” value is reported as “soluble”. In the case of “MHHHHHHSSGRENLYFQGQKDGIFKVMLVGESGVGKSTLAGTFGGLQGDSAHEPENPEDTYERRIMVDKEEVTLVVYDIWEQGDAGGWLRDHCLQTGDAFLIVFSVTDRRSFSKVPETLLRLRAGRPHHDLPVILVGNKSDLARSREVSLEEGRHLAGTLSCKHIETSAALHHNTRELFEGAVRQIRLRRGRNHA”, the “soluble on expression in E. coli” value is reported as “soluble”.
